Changes are numbered by the printed parent chain.
T1: full length cyno SIRPα stably expressed on CHOK1 cells (cynomolgus monkey, UniProt A0A2K5VYQ9 31-507)
T1 construct: whole, on cells; also called CHOK1-cyno SIRPα-2A2 cells; CHOK1-cyno SIRPα
T1 sequence: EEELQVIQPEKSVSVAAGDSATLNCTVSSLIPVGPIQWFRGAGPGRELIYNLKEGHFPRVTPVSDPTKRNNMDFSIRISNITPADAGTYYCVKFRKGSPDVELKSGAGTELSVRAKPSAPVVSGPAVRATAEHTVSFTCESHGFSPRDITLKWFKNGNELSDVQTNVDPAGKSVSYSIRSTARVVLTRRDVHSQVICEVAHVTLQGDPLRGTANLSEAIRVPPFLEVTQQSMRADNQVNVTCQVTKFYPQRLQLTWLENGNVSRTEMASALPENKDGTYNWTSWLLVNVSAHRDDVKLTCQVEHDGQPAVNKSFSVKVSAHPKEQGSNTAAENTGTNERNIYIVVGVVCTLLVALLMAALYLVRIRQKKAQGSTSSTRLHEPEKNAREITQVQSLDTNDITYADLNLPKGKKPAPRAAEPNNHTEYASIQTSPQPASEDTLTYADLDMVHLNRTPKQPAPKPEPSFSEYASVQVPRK

T2: full length C57BL/6 mouse SIRPα stably expressed on CHOK1 cells (mouse (C57BL/6), UniProt P97797 32-513)
T2 construct: whole, on cells; also called CHOK1-C57BL/6 mouse SIRPα-2.22 cells
T2 sequence (looked up): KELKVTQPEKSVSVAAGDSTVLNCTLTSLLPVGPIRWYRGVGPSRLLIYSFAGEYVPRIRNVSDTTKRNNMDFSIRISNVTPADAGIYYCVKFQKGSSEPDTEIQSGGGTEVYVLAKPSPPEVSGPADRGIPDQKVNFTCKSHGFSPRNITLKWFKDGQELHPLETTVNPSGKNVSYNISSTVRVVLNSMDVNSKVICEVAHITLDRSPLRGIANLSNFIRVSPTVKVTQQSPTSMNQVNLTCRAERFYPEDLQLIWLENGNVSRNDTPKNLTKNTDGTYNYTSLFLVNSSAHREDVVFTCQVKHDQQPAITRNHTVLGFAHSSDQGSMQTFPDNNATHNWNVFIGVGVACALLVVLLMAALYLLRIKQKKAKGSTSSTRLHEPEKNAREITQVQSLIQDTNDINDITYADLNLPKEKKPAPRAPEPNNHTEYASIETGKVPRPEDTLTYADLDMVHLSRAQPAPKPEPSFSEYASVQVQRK

B1: Antibody 074 (hybridoma antibody) (antibody, V domains shown)
VH: QVQLQQPRAELVKPGASVMLSCKASGYTFSSYWIHWVRQGPGQGLEWIGLIHPNSGNTDCSETFKNKATLTVDTSSSTAYMQLSSLASEDSAVYYCARDGASYDWFVHWGQGTLVTVSA
VL: not shown
notes: mouse hybridoma antibody
B2: Antibody 001 (hybridoma antibody) (antibody, V domains shown)
VH: EVKLEESGGGLVQPGGSMKLSCVASGFTFRNYWMNWVRQSPERGLEWIAEISLKSNTYATHYAESVKGRFAISRDGSKSSFYLQMNDLRAEDTGIYYCTTFTKVVADWHLDVWGAGTTVTVSS
VL: DVLMTQTPLSLPVSLGDQASISCRSSQNIVHSNGNTYLEWYLQKPGQSPKLLIYKVSNRFSGVPDRFSGSGSGTDFTLRISRVEAEDLGVYYCFQGSHVPFTFGSGTKLEIK
notes: mouse hybridoma antibody
B3: Antibody 002 (hybridoma antibody) (antibody, V domains shown)
VH: B2 VH with K19I, S52T, G76D, A90P
VL: B2 VL with V56I, K112Q
notes: mouse hybridoma antibody
B4: Antibody 032 (hybridoma antibody) (antibody, V domains shown)
VH: B2 VH with K3R, A24V, S52T, G76D, A90P
VL: B2 VL with S14N
notes: mouse hybridoma antibody
B5: reference antibody HEFLB (antibody, V domains shown)
VH: EVQLVQSGAEVKKPGESLRISCKASGYSFTSYWVHWVRQMPGKGLEWMGNIDPSDSDTHYSPSFQGHVTLSVDKSISTAYLQLSSLKASDTAMYYCVRGGTGTLAYFAYWGQGTLVTVSS
VL: DVVMTQSPLSLPVTLGQPASISCRSSQSLVHSYGNTYLYWFQQRPGQSPRLLIYRVSNRFSGVPDRFSGSGSGTDFTLKISRVEAEDVGVYYCFQGTHVPYTFGGGTKVEIK
B6: Antibody 060 (hybridoma antibody) (antibody, V domains shown)
VH: QVQLKESGPGLVAPSESLSITCTVSGFSLTNYDISWIRQSPGKGLEWLGVIWTGGDTNFNSAFMSRLSISKDKSKSQVFLKLNSLQTDDTAIYYCVRVQYFGGSYGPMDYWGQGISVTVSS
VL: DIQMTQASSYLSVSLGGRVTITCEASDHINDWLAWYQQTPGNAPRLLISGATSLETGVPSRFSGSGSGKDYTLSITSLQTEDIATYYCQQYWNTPLTFGAGTRLELK
notes: mouse hybridoma antibody
B7: reference antibody KWAR23 (antibody, V domains shown)
VH: EVQLQQSGAELVKPGASVKLSCTASGFNIKDYYIHWVQQRTEQGLEWIGRIDPEDGETKYAPKFQDKATITADTSSNTAYLHLSSLTSEDTAVYYCARWGAYWGQGTLVTVSS
VL: QIVLTQSPAIMSASPGEKVTLTCSASSSVSSSYLYWYQQKPGSSPKLWIYSTSNLASGVPARFSGSGSGTSYSLTISSMEAEDAASYFCHQWSSYPRTFGAGTKLELK
B8: Antibody 050 (hybridoma antibody) (antibody, V domains shown)
VH: QIQLVQSGPELKKPGETVKISCKASGYTFTHYSMHWVKQAPGKGLKWMGWINTETAEPTYVDDFKGRFAFSLEASASTAFFQINNLKNEDTATYFCARGGLRQGDYWGQGTTLTVSS
VL: B7 VL with A9P, S26T, S31A, Y37F, S78N, A81P, E82A, R97Y, A101G, L107I
notes: mouse hybridoma antibody
B9: Antibody 022 (hybridoma antibody) (antibody, V domains shown)
VH: QIQLVQSGPELKKPGETVKISCKASGYTFTDYAMHWVKQAPGKGLKWMGWKNTETGESTYAEDFKGRFAFFLETSASTAYLQINNVKNEDTATYFCARGGYGSNYVMDYWGQGTSVIVSS
VL: DIQMTQSSSSFSVSLGDRVTITCKASEDIYNRLAWYQQKPGNAPRLLISGATSLETGVPSRFSGSGSGKDYTLSITSLQTEDVATYYCQQYWNSPRTFGGGTKLEIK
notes: mouse hybridoma antibody
B10: Antibody 035 (hybridoma antibody) (antibody, V domains shown)
VH: QIQLVQSGPELRKPGETVKISCKASGYSFTNYAMNWVKQAPGKVLKWMGFINTYTGEPTYADDFKGRFAFSLETSASTAYLQINNLKNEDTATYFCTRTRGYYDFDGGAFDYWGQGTSLTVSS
VL: DIVMTQSQKFMSTSIGDRVSVTCKASQNVGTHLAWYQQKPGQSPKALIFSASYRYIGVPDRFTGSGSGTDFTLTITNVQSEDLAEYFCQQYNTYPLTFGAGTKLELK
notes: mouse hybridoma antibody

Experiments:
[1] = biological target: T3, biotin labeled soluble human SIRPα v1 ECD recombinant protein (human, UniProt P78324 31-373, biotin labeled); assay: competitive ELISA; competitor 002
T3 construct: extracellular domain
Protocol: (§1) Competitive ELISA assay was used for epitope binning of 9 functional antibodies. Briefly excessive competitor antibody and biotin labeled soluble human SIRPα v1 ECD recombinant protein were co-incubated with ELISA microplate coated antibody. After washing, HRP-SA was added and incubated at 37° C. for 1 hour. Then, […] of TMB solution (Biotechnology) was added. After incubation for 15 minutes at room temperature, the reaction was stopped by the addition of […] of 1N HCl. OD 450 nm was read. Competition ratio was calculated. The antibodies that can compete each other for binding to SIRPα have the similar binding epitope.

[2] = biological target: T3, biotin labeled soluble human SIRPα v1 …; assay: competitive ELISA; competitor 001
Protocol: as §1

[3] = biological target: T1, full length cyno SIRPα stably expressed …; assay: FACS on CHOK1 cells
[4] = biological target: T2, full length C57BL/6 mouse SIRPα stably …; assay: FACS on CHOK1 cells
[5] = biological target: T3, biotin labeled soluble human SIRPα v1 …; assay: competitive ELISA; competitor KWAR23
Protocol: as §1

[6] = biological target: T3, biotin labeled soluble human SIRPα v1 …; assay: competitive ELISA; competitor 060
Protocol: as §1

[7] = biological target: T4, Fc tagged human SIRPβ ECD recombinant protein (human, UniProt O00241 30-371); assay: ELISA
T4 construct: range 1-371; cloned range includes the signal peptide; also called hSIRPβ; not shown: human IgG Fc region (hFc) of the pCPC vector
Method in brief: (§2)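 Binding is reported as EC₅₀ from absorbance at 450 nm. Antibodies (hybridoma-derived or chimeric) are incubated with plate-coated antigen at 37° C. for 1 hour, followed by an HRP-conjugated anti-IgG secondary under the same conditions and TMB substrate.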

[8] = biological target: T5, Fc tagged human SIRPα v2 ECD recombinant protein (human); assay: ELISA
T5 construct: range 1-369; cloned range M1-R369 includes the signal peptide; also called hSIRPα V2
Method in brief: as §2

| Binder | % Competition [1] [%] | % Competition [2] [%] | MFI at 10 nM [3] [MFI] | binding result [4] | % Competition [5] [%] | % Competition [6] [%] | binding result [3] | EC50 [7] [nM] | EC50 [8] [nM] |
| --- | --- | --- | --- | --- | --- | --- | --- | --- | --- |
| B1 | 14 | 33 | 14300 | no binding (tested: 100 nM) | -14 | -1 |  |  |  |
| B2 | 95 | 96 | 8030 | no binding (tested: 100 nM) | 83 | 19 |  |  |  |
| B3 | 90 | 94 | 7540 | no binding (tested: 100 nM) | 71 | -10 |  |  |  |
| B4 | 93 | 94 | 6860 | no binding (tested: 100 nM) | 69 | 7 |  |  |  |
| B5 | 81 | 89 |  |  | 94 | 7 | no binding (tested: 10 nM) | 0.08 |  |
| B6 | 1 | 0 |  | no binding (tested: 100 nM) | -4 | 93 | no binding (tested: 10 nM) |  |  |
| B7 | 49 | 85 |  |  | 95 | 5 |  | 0.08 | 0.09 |
| B8 | 3 | 2 | 13600 | no binding (tested: 100 nM) | 0 | 17 |  |  |  |
| B9 | 6 | 2 | 6430 | no binding (tested: 100 nM) | 1 | 26 |  |  |  |
| B10 | 86 | 92 | 8310 |  | -6 | -1 |  |  |  |
